In patent EP4703380A1, “INTEGRIN-TARGETING ANTIBODIES AND USE THEREOF” (NIO BIOPHARMACEUTICALS. INC., priority 2023, dated 2024):
Values joined by “and” are separate entries in the source; they are usually repeats but may differ in a detail not shown here. Equal entries are not always repeated.

Experiments:
[1] = system: MDA-MB-231; experiment: AlamarBlue cell growth inhibition, MDA-MB-231; type: cell-based; conditions: TNBC, MDA-MB-231, 4 days
Protocol: (§1) First, an appropriate number of cells (3x10^3 to 1x10^4 cells) for each cancer cell line were dispensed into each well of a 96-well plate and cultured for 24 hours at 37°C, 5% CO2, and then the medium was replaced with fresh growth medium. Then, sequentially diluted antibody-drug conjugates were added to each well, and the cells were cultured for 4 days under 37°C, 5% CO2 conditions, and then treated with AlamarBlue (Invitrogen). The fluorescence values were measured at Ex530 and Em590 every 2, 4, and 6 hours (PerkinElmer Victor x4). The obtained fluorescence values were analyzed with Prism4 (GraphPad) to determine the EC50 value. Each experiment was repeated three times.

[2] = system: MDA-MB-468; experiment: AlamarBlue cell growth inhibition, MDA-MB-468; type: cell-based; conditions: TNBC, MDA-MB-468, 4 days
Protocol: as §1

[3] = system: PANC-1; experiment: Pancreatic cancer xenograft efficacy; type: in vivo, mice; conditions: PANC-1 xenograft, NOD/SCID
Protocol: PANC-1 (3 × 10^6) cancer cells were subcutaneously injected into NOD/SCID (female 5-week-old) mice. When the tumor volume reached […], the PS4-vcMMAE conjugate was intraperitoneally injected at 5 mg/kg or 10 mg/kg once every 5 days for a total of 3 times. The control group was treated with PBS, and the efficacy was evaluated with 3-4 mice per group. After the experiment, the tumors were excised, and the size of the tumor tissues in each experimental group was compared. All animal experiments were performed in accordance with the protocol approved by the Institutional Animal Care and Use Committee (IACUC) of Kangwon National University (KW-210728-3).

[4] = system: SCaBER; experiment: AlamarBlue cell growth inhibition, SCaBER; type: cell-based; conditions: bladder, 4 days
Protocol: as §1

[5] = Real-time thermal stability (SYPRO Orange); type: physicochemical; conditions: 2 µM sample, 10.0°C to 95°C
Protocol: The method and principle of the experiment were as follows. As the temperature increases, the folded protein denatures, exposing hydrophobic regions, which bind to the SYPRO Orange detection dye, resulting in fluorescence. The point at 1/2 RFUmax is designated as the melting point (Tm). 22.5 µL of the assay sample and 2.5 µL of 50x SYPRO stock solution were added to a 96-well PCR plate (VOLO Semi-Skirted PCR Plate) so that the final concentration of the sample used in the experiment was 2 µM, and the fluorescence was measured using Quantstudio Real-Time PCR (Thermo Fisher scientific) while increasing the temperature by 0.5°C per 10 s from 10.0°C to 95°C. Each sample was tested three times. The fluorescence value of the antibody buffer was set as the background and subtracted, and the value with the greatest slope in the […] of the fluorescence value (dTRFU) was analyzed as the Tm of the corresponding protein.

[6] = system: Aspc-1; experiment: AlamarBlue cell growth inhibition, Aspc-1; type: cell-based; conditions: Pancreatic, Aspc-1, 4 days
Protocol: as §1

[7] = system: MDA-MB-231 cells; experiment: Triple-negative breast cancer xenograft efficacy; type: in vivo, mice; conditions: MDA-MB-231 xenograft
Protocol: Triple-negative breast cancer (TNBC) MDA-MB-231 cells (2x10^6 cells) were mixed with Matrigel at a 1:1 (v/v) ratio and injected subcutaneously into BALB/c nude or NOD/SCID mice (Nara Bio). When the tumor volume reached 100 mm^3, the PS4-vcMMAE antibody-drug conjugate was administered intraperitoneally at 5 mg/kg or 10 mg/kg once every 5 days for a total of 5 times. 2-3 mice were used in each group. All animal experiments were conducted in accordance with protocols approved by the Institutional Animal Care and Use Committee (IACUC) of Kangwon National University (KW-210728-3).

[8] = system: MDA-MB-453; experiment: AlamarBlue cell growth inhibition, MDA-MB-453; type: cell-based; conditions: TNBC, MDA-MB-453, 4 days
Protocol: as §1

[9] = system: MKN45; experiment: AlamarBlue cell growth inhibition, MKN45; type: cell-based; conditions: Stomach, MKN45, 4 days
Protocol: as §1

[10] = system: A549; experiment: AlamarBlue cell growth inhibition, A549; type: cell-based; conditions: Lung, A549, 4 days
Protocol: as §1

[11] = system: CoCaB1; experiment: AlamarBlue cell growth inhibition, CoCaB1; type: cell-based; conditions: bladder, CoCaB1, 4 days
Protocol: as §1

[12] = system: SW780; experiment: AlamarBlue cell growth inhibition, SW780; type: cell-based; conditions: bladder, SW780, 4 days
Protocol: as §1

[13] = system: Panc-1; experiment: AlamarBlue cell growth inhibition, Panc-1; type: cell-based; conditions: Pancreatic, Panc-1, 4 days
Protocol: as §1

[14] = system: UMUC-3; experiment: AlamarBlue cell growth inhibition, UMUC-3; type: cell-based; conditions: bladder, UMUC-3, 4 days
Protocol: as §1

[15] = system: BT20; experiment: AlamarBlue cell growth inhibition, BT20; type: cell-based; conditions: TNBC, BT20, 4 days
Protocol: as §1

[16] = system: MDA-MB-231 ITGA KO; experiment: AlamarBlue cell growth inhibition, ITGA3 knockout negative control line; type: cell-based; conditions: breast cancer cell line with ITGA3 subunit knocked out
Protocol: MDA-MB-231 cells with ITGA3 gene knockout were generated as follows. sgRNAs targeting exon 17 ([…]) of the ITGA3 gene were subcloned using the CRISPR-Cas9-2A-Puro V2.0 (Addgene) system. MDA-MB-231 cells were transfected with CRISPR-Cas9/sgRNA and cultured at 37°C, 5% CO2 for 72 hours. Afterwards, puromycin, the selection marker for the CRISPR-Cas9 vector, was added at a concentration of 250 ng/mL and selected for 18 days. Then, the target protein knockout efficiency was measured using flow cytometry (FACS calibur, FACS Aria, BD Biosciences), and knockout cells were isolated. MDA-MB-231 cells with ITGA3 knockout, i.e., MDA-MB-231/ITGA3 KO cell lines, were analyzed by flow cytometry using 3 µg/mL PS4 antibody and anti-human Fc-gamma specific Alexa Fluor-647 (1:800 dilution, Jackson ImmunoResearch Laboratories Inc.). In addition, MDA-MB-231/ITGA3 KO cell lysate (30 µg) was separated by SDS-PAGE and analyzed by Western blot using anti-ITGA3 (Antibodies-online) and anti-mouse Fc-gamma specific-HRP. Sample loading was compared using anti-beta-actin.
First, an appropriate number of cells (3x10^3 to 1x10^4 cells) for each cancer cell line were dispensed into each well of a 96-well plate and cultured for 24 hours at 37°C, 5% CO2, and then the medium was replaced with fresh growth medium. […] The fluorescence values were measured at Ex530 and Em590 every 2, 4, and 6 hours (PerkinElmer Victor x4). […]

B1: PS4-vcMMAE: PS4 WT maxibody conjugated with vcMMAE (monomethyl auristatin E); average DAR 4.09 (conjugate)
VH: QVQLVQSGGGLVNPGGSLRLSCAASGFPFSDHYMSWIRQAPGKGLEWVSYISNRGYTIHYADFVKGRFTISRDNAENTLYLQMNSLRAEDTAVYYCARDRGTIDAFDLWGQGTMVTVSS
VL: QSALTQPASVSGSPGQSITIPCSGTSDDIGRYNYVSWYQQHPGKAPKLLIYDVTRRSSGVSSHFSGSKSGSTASLIISGLQADDEADYFCSSFTNNRTVVFGGGTKLTVL
modifications: left off: things letters cannot carry; another chain or arm of the molecule; a dimerising Fc or GST; small tags and cut ends
[1]
  IC50: 0.77 ± 0.63 nM
  Maximum (% inhibition): 77.97±2.03%
[2]
  Maximum (% inhibition): 89.88±2.5%
[3]; 10 mg/kg
  tumor size reduced: at least 60%
[3]; intraperitoneally 5 mg/kg or 10 mg/kg once every 5 days, 3 times, vs control group (PBS)
  tumor growth: inhibited in a PS4-MMAE dose-dependent manner
[4]
  IC50: 1.88 ± 0.79 nM
  Maximum (% inhibition): 89.71±0.61%
[5]
  Tm: 64.67±0.24 °C
[6]
  Maximum (% inhibition): 51.78±25.44%
[7]; BALB/c nude or NOD/SCID mice, intraperitoneally 5 mg/kg or 10 mg/kg once every 5 days, 5 times, vs control group
  size and weight of the extracted tumor tissue reduced: approximately 55%
[7]; NOD/SCID, 10 mg/kg
  tumor size compared to the time of drug administration: no significant difference
[7]; intraperitoneally 5 mg/kg or 10 mg/kg once every 5 days, 5 times, vs control group
  tumor growth: inhibited in a PS4-MMAE dose-dependent manner
[8]
  IC50: 9.79 nM and 18.8 nM
  Maximum (% inhibition): 96.2±0.36% and 87.9±0.61%
[9]
  IC50: 14.1 ± 4.52 nM
  Maximum (% inhibition): 55.65±6.45%
[10]
  IC50: 5.22 ± 2.17 nM
  Maximum (% inhibition): 77.32±1.02%
[11]
  IC50: 2.21 ± 1.4 nM
  Maximum (% inhibition): 95.48±2.44%
[12]
  IC50: 1.78 ± 1.05 nM
  Maximum (% inhibition): 90.43±2.32%
[13]
  IC50: 2.7 ± 1.21 nM
  Maximum (% inhibition): 73.78±2.18%
[14]
  IC50: 2.1 ± 1.2 nM
  Maximum (% inhibition): 90.75±4.02%
[15]
  IC50: 134 ± 43.4 nM
  Maximum (% inhibition): 79.6±11.3%
[16]
  anticancer efficacy: no anticancer efficacy was observed
